Assay results published in US20220363763A1 (ABL BIO, published 2022).

Assays:
B7-1 protein = target: T1, B7-1 protein (human, UniProt P33681 35-242, limits assumed, biotin-labeled in the blocking assay); experiment: ELISA
T1 construct: also called human B7-1; biotin-labeled B7-1
T1 sequence (looked up): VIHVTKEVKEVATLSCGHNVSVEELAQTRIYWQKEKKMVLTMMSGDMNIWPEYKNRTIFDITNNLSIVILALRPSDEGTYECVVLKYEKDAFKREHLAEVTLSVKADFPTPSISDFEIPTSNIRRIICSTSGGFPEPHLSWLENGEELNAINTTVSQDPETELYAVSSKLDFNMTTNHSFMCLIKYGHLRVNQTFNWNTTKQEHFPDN

B7-DC = target: T2, B7-DC (human, UniProt Q9BQ51 20-220, limits assumed); experiment: ELISA
T2 sequence (looked up): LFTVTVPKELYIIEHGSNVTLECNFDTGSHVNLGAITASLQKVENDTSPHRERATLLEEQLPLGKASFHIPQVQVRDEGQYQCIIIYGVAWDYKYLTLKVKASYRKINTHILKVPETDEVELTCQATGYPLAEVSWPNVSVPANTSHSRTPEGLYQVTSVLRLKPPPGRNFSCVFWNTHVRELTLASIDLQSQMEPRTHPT

CD28 = CD28 (human, UniProt P10747 19-152); experiment: ELISA
CTLA4 = CTLA4 (human, UniProt P16410 36-161, limits assumed); experiment: ELISA
BTLA = BTLA (human, UniProt Q7Z6A9 31-157, limits assumed); experiment: ELISA
B7-H2 = target: T3, B7-H2 (human, UniProt O75144 19-258, limits assumed); experiment: ELISA
T3 sequence (looked up): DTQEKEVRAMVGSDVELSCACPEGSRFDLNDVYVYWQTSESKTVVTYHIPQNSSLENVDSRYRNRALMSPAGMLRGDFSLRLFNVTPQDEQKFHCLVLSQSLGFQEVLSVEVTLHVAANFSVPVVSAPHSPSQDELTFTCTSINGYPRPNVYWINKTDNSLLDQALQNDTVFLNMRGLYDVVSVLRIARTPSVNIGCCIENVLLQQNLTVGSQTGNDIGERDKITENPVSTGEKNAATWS

B7-2 = target: T4, B7-2 (human, UniProt P42081 24-247, limits assumed); experiment: ELISA
T4 sequence (looked up): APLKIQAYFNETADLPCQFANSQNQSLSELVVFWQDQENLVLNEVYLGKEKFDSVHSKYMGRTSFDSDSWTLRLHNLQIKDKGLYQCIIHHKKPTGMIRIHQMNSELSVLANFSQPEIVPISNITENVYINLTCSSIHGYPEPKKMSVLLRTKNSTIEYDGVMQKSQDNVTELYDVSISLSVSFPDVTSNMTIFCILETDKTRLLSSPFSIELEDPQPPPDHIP

huPD-1 = target: T5, huPD-1 (human, UniProt Q15116 25-167, limits assumed, biotin-labeled in the FACS blocking assays); experiment: ELISA
T5 construct: also called biotin-labeled huPD-1; Bio-PD1

ICOS = target: T6, ICOS (human, UniProt Q9Y6W8 21-140, limits assumed); experiment: ELISA
T6 sequence (looked up): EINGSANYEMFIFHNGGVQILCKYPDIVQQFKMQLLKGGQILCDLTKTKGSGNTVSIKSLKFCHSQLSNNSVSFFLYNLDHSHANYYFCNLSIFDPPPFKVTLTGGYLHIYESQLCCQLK

[1] = target: T7, human PD-L1-his taq protein (human, UniProt Q9NZQ7 19-239, limits assumed); experiment: SPR Biacore T200, antibody captured, PD-L1-his injected
T7 construct: also called recombinant PD-L1 protein; recombinant human PD-L1; not shown: his tag
Outline: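 HL1210-3 mouse mAb was captured via anti-mouse Fc antibody on a CM5 chip, then serially diluted PD-L1-his was injected for 3 min […]. Dissociation was followed for 900 s.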

human PD-L1-Fc protein [2] = target: T8, human PD-L1-Fc protein (human, UniProt Q9NZQ7 19-239); experiment: receptor blocking assay, panel B7-1; blocked ligand biotin-labeled B7-1 protein; by paragraph 296 an ELISA on coated PD-L1-Fc, though the sheet is headed 'Cell based receptor blocking assay'
T8 construct: Coated on ELISA plates; also called huPD-L1; not shown: Fc part
Outline: (§1)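 Plates were coated overnight at 4° C with human PD-L1-Fc at 1 μg/ml in PBS (100 μl/well) and blocked with 5% BSA for 2 hr at 37° C. Biotin-labeled human PD-1-Fc or B7-1 protein (50 μl) was combined with 50 μl of 5-fold antibody dilutions starting from 100 nM and incubated for 1 hour at 37° C, followed by streptavidin-HRP for 1 hour at 37° C. In this protein-based receptor blocking ELISA, IC50 was taken from the resulting curve.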

human PD-L1-Fc protein [3] = target: T8, human PD-L1-Fc protein; experiment: ELISA on coated human PD-L1-Fc
Experimental: (§2) To evaluate the binding of humanized antibodies to huPD-L1, Mouse PD-L1, Rat PD-L1, […], the antibodies were performed for the ELISA testing. Briefly, microtiter plates were coated with human, mouse, rat and rhesus PD-L1-Fc protein at 1 μg/ml in PBS, 100 μl/well at […] overnight, then blocked with […] of 5% BSA. Three-fold dilutions of humanized antibodies starting from 1 μg/ml were added to each well and incubated for 1-2 hours at RT. The plates were washed with PBS/Tween and then incubate with […] antibody conjugated with Horse Radish Peroxidase (HRP) for 1 hour at RT. After washing, the plates were developed with TMB substrate and analyzed by spectrophotometer at OD 450-630 nm. The Hu1210-41 antibody can bind to rhesus PD-L1 with lower affinity and cannot bind to rat and mouse PD-L1 (FIG. 8 & Table 12).

human PD-L1-Fc protein [4] = target: T8, human PD-L1-Fc protein; experiment: ELISA on coated human PD-L1-Fc; table row 'Human PD-L1', no unit in the table, x axis Ab(nM); Table 12 of the text prints 0.215 nM
Experimental: as §2

mouse PD-L1-Fc protein = target: T9, mouse PD-L1-Fc protein (mouse, UniProt Q9EP73 19-238, limits assumed); experiment: ELISA on coated PD-L1-Fc
T9 construct: not shown: Fc part
Experimental: as §2

rat PD-L1-Fc protein = rat PD-L1-Fc protein (rat, UniProt D4AE25 19-239); experiment: ELISA on coated PD-L1-Fc
Experimental: as §2

rhesus PD-L1-Fc protein = target: T10, rhesus PD-L1-Fc protein (rhesus, UniProt F6PJN1 19-239); experiment: ELISA on coated rhesus PD-L1-Fc
T10 construct: not shown: Fc part
Experimental: as §2

human PD-L1-Fc protein [5] = target: T8, human PD-L1-Fc protein; experiment: receptor blocking assay, panel PD1; blocked ligand biotin-labeled human PD-1-Fc; by paragraph 296 an ELISA on coated PD-L1-Fc, though the sheet is headed 'Cell based receptor blocking assay'
Outline: as §1

T7 sequence (Q9NZQ7 19-239 limits assumed): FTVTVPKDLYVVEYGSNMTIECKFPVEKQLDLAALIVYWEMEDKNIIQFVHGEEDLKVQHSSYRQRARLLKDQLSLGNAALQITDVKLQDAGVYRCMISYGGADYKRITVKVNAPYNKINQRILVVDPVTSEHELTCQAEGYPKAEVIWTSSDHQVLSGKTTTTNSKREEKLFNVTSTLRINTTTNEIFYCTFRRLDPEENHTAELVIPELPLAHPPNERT
T8 sequence (Q9NZQ7 19-239 limits assumed): as above
CTLA4, sequence (P16410 36-161 limits assumed): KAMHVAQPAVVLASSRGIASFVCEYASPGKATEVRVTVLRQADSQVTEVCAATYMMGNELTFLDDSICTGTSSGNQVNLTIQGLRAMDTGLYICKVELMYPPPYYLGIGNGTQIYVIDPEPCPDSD
T9 sequence (Q9EP73 19-238 limits assumed): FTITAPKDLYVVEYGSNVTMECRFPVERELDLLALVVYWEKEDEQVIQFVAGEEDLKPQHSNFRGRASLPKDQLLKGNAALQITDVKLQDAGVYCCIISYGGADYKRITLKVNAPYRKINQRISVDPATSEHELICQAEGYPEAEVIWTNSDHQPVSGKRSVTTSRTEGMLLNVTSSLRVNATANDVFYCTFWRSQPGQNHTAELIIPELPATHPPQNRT
rat PD-L1-Fc protein, sequence (D4AE25 entry or part of it limits assumed): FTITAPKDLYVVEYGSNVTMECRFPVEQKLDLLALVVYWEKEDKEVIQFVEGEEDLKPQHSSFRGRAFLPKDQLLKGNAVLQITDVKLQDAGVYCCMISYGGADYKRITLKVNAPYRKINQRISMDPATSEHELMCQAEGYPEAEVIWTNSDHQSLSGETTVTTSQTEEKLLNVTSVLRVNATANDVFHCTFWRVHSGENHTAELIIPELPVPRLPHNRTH
T5 sequence (Q15116 25-167 limits assumed): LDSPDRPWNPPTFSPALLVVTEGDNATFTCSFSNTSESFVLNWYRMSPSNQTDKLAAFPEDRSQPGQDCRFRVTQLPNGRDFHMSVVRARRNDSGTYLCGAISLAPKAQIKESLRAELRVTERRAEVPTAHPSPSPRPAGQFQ

binding result (B7-1 protein): no binding
binding result (B7-DC): no binding
binding result (CD28): no binding
binding result (CTLA4): no binding
binding result (BTLA): no binding
binding result (B7-H2): no binding
binding result (B7-2): no binding
binding result (huPD-1): no binding
binding result (ICOS): no binding
Kd [1]: 0.378 nM
koff [1]: 3.46e-05 s⁻¹
kon [1]: 91700 M⁻¹ s⁻¹
IC50 (read off the curve) (human PD-L1-Fc protein [2]): ~0.9 nM
EC50 (human PD-L1-Fc protein [3]): 0.215 nM
EC50 (human PD-L1-Fc protein [4]): 0.21 nM
EC50 (rhesus PD-L1-Fc protein): 0.628 nM
IC50 (read off the curve) (human PD-L1-Fc protein [5]): ~1 nM
B1: Hu1210-41 (antibody, V domains shown)
VH: EVQLVESGGGLVQPGGSLRLSCAASGFTFSSYDMSWVRQAPGKSLEWVATISDAGGYIYYSDSVKGRFTISRDNAKNSLYLQMNSLRDEDTAVYICAREFGKRYALDYWGQGTTVTVSS
VL: DIQMTQSPSSLSASVGDRVTITCKASQDVTPAVAWYQQKPGKAPKLLIYSTSSRYTGVPSRFSGSGSGTDFTFTISSLQPEDIATYYCQQHYTTPLTFGQGTKLEIK
notes: Hu1210 VH.4d x Vk.1; human gamma 1 / kappa constant domains; also called H12; Hu1210 VH.4d x Hu1210 Vk.1
binding result (mouse PD-L1-Fc protein): no binding (tested: 1 µg/ml (highest concentration))
binding result (rat PD-L1-Fc protein): no binding (tested: 1 µg/ml (highest concentration))
